The target of experiment [1] is cynomolgus CD38 on cynomolgus B cells (PBMCs) (cynomolgus) (UniProt Q5VAN0). Briefly: cell-based or functional assay.
The target in experiment [2] is Recombinant cynomolgus CD3ε-Fc (cynomolgus) (UniProt Q95LI5). Briefly: SPR, SensiQ Pioneer FE; CD3ε-Fc amine coupled to CM5 chip; equilibrium analysis.
For experiment [3], the target named is Recombinant human CD3ε-Fc (human). Described as above.
Experiment [4] deals with Recombinant minimally biotinylated cynomolgus CD38-His (Sino Biological Inc.) (cynomolgus) (UniProt Q5VAN0). Briefly: BLI, Octet HTX; biotinylated CD38-His on streptavidin tips (2 nm), antibody in solution; 1:1 model, kd/ka.
Experiment [5] concerns the target Recombinant minimally biotinylated human CD38-His (Fisher Scientific) (human) (UniProt P28907). The description is as above.
Experiment [6] has as its target Recombinant human CD3ε-Fc (human). Description: Absolute KD; SPR, Biacore T200, CD3ε-Fc amine coupled to CM5 at lowest usable density; koff/kon, 1:1 global fit.
For experiment [7], the target named is Recombinant minimally biotinylated cynomolgus CD38-His (Sino Biological Inc.) (cynomolgus) (UniProt Q5VAN0). Briefly: Absolute KD; BLI, Octet HTX, CD38-His at five loading levels 0.3-2 nm, plateau of measured KD as loading decreases.
Experiment [8] addresses Recombinant minimally biotinylated human CD38-His (Fisher Scientific) (human) (UniProt P28907). Described as above.

Recombinant human CD3ε-Fc (human), sequence (chain, as listed by the source): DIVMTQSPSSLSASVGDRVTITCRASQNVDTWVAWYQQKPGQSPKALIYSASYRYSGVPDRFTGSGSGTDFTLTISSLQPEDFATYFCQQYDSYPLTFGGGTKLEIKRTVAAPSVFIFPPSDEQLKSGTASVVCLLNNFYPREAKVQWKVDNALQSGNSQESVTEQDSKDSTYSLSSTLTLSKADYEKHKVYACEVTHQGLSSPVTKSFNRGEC
Recombinant minimally biotinylated cynomolgus CD38-His (Sino Biological Inc.) (cynomolgus), sequence (Q5VAN0 44-301 limits assumed): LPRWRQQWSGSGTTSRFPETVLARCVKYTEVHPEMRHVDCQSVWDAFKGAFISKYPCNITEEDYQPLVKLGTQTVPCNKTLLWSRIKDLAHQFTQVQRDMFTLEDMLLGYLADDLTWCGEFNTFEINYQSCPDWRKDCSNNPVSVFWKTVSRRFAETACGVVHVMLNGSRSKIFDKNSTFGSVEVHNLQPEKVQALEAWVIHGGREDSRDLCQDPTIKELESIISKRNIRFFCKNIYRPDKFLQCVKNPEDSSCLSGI
Recombinant minimally biotinylated human CD38-His (Fisher Scientific) (human), sequence (P28907 43-300 limits assumed): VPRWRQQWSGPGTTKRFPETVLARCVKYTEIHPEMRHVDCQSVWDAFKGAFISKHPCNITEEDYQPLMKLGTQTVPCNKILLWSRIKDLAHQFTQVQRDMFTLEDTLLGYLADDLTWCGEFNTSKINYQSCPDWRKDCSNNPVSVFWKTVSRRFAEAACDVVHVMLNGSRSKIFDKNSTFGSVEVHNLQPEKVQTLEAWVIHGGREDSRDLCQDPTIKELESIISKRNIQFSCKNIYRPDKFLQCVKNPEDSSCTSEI
cynomolgus CD38 on cynomolgus B cells (PBMCs) (cynomolgus), sequence (Q5VAN0 whole entry): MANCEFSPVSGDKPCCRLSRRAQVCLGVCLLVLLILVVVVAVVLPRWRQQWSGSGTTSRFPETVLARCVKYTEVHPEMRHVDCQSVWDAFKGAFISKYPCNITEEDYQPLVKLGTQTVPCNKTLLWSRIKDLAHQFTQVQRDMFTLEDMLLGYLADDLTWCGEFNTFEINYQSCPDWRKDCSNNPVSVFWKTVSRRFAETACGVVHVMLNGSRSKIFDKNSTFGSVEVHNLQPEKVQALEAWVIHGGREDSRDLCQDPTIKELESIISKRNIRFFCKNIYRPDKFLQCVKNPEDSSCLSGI
Recombinant cynomolgus CD3ε-Fc (cynomolgus), sequence (Q95LI5 22-117 limits assumed): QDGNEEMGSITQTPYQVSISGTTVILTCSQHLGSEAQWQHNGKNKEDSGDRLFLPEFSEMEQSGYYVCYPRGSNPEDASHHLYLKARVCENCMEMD

Turning to “XmAb18968 (412220) (bispecific antibody)”, the Cyno B Cell TDCC EC50 in experiment [1] is 82 pM. Also, the Kd was found to be 33.5 nM in experiment [2]; 29.7 nM in experiment [3]; 2.8 nM in experiment [4]; 2.5 nM in experiment [5]; 35.6 nM in experiment [6]; 7.5 nM in experiment [7]. Moreover, the Kd in experiment [8] turned out to be 8.9 nM.

These data come from US20180305465A1.
